Test results published in patent US20240209076A1 (KODIAK SCIENCES, published 2024).
Changes are numbered by the printed parent chain. Names may count otherwise. Each block holds one binder with its values, some of them ahead of it.

Columns and labels:
[1] = target: recombinant human IL-6 (human, UniProt P05231 30-212); experiment: SPR, IL-6 on CM5 chip, Fab lysate, 25 C
Target sequence in this assay (P05231 30-212 limits assumed): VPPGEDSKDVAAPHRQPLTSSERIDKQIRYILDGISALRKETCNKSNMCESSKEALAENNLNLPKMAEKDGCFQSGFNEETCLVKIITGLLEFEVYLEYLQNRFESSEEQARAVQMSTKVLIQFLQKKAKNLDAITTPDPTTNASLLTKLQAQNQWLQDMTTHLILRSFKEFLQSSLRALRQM

[2] = target: T1, recombinant human IL-6 (human, UniProt P05231 30-212); experiment: SPR Biacore, supernatant Ab on Protein A chip, IL-6 analyte, 25 C
T1 construct: Bought protein
Description: Antibodies were captured on a Protein A chip (GE) by injecting 1:20 dilution of cell supernatant at 10 μL/min for 60 seconds. […] The sensor chip was regenerated by a 60 seconds injection of 10 mM Glycine pH 1.7 at flow rate of 50 μL/min. […] For this setup, 1 μg/mL of purified antibody was injected over a Protein A chip at 10 μL/min for 25-28 seconds. Data analysis for supernatant and purified samples were performed using BIAevaluation software (GE). All sensorgrams were double reference subtracted and fit using a 1:1 Langmuir binding model.
T1 sequence (P05231 30-212 limits assumed): as above

koff [1]: 0.0051 s⁻¹
B1: anti-IL-6 Fab, light chain Y31F (Fab, V domains shown)
VH: EVQLVESGGGLVQPGGSLRLSCAASGFTFSPFAMSWVRQAPGKGLEWVAKISPGGSWTYYSDTVTGRFTFSLDTSKSTAYLQMNSLRAEDTAVYYCARQLWGYYALDIWGQGTLVTVSS
VL: DIQLTQSPSSLSASVGDRVTITCSASISVSFMYWYQQKPGKAPKLLIYDMSNLASGVPSRFSGSGSGTDFTLTISSLQPEDFATYYCMQWSGYPYTFGQGTKVEIK
notes: see m39

koff [1]: 0.00389 s⁻¹
B2: anti-IL-6 Fab, heavy chain G102D (Fab, V domains shown)
VH: B1 VH with G102D
VL: B1 VL with F31Y

koff [1]: 0.00412 s⁻¹
B3: anti-IL-6 Fab, heavy chain A97V (Fab, V domains shown)
VH: B1 VH with A97V
VL: B1 VL with F31Y

koff [1]: 0.00512 s⁻¹
B4: anti-IL-6 Fab, heavy chain Y103E (Fab, V domains shown)
VH: B1 VH with Y103E
VL: B1 VL with F31Y

koff [1]: 0.00388 s⁻¹
B5: anti-IL-6 Fab, heavy chain Q99A (Fab, V domains shown)
VH: B1 VH with Q99A
VL: B1 VL with F31Y

koff [1]: 0.00352 s⁻¹
B6: anti-IL-6 Fab, heavy chain I108S (Fab, V domains shown)
VH: B1 VH with I108S
VL: B1 VL with F31Y

koff [1]: 0.00441 s⁻¹
B7: anti-IL-6 Fab, heavy chain Q99H (Fab, V domains shown)
VH: B1 VH with Q99H
VL: B1 VL with F31Y

koff [1]: 0.00502 s⁻¹
B8: anti-IL-6 Fab, heavy chain Y103S (Fab, V domains shown)
VH: B1 VH with Y103S
VL: B1 VL with F31Y

koff [1]: 0.00381 s⁻¹
B9: anti-IL-6 Fab, heavy chain Y104V (Fab, V domains shown)
VH: B1 VH with Y104V
VL: B1 VL with F31Y

koff [1]: 0.00401 s⁻¹
B10: anti-IL-6 Fab, heavy chain A105Q (Fab, V domains shown)
VH: B1 VH with A105Q
VL: B1 VL with F31Y

koff [1]: 0.00438 s⁻¹
B11: anti-IL-6 Fab, heavy chain D107E (Fab, V domains shown)
VH: B1 VH with D107E
VL: B1 VL with F31Y

koff [1]: 0.00287 s⁻¹
B12: anti-IL-6 Fab, heavy chain L100K (Fab, V domains shown)
VH: B1 VH with L100K
VL: B1 VL with F31Y

koff [1]: 0.00308 s⁻¹
B13: anti-IL-6 Fab, heavy chain I108E (Fab, V domains shown)
VH: B1 VH with I108E
VL: B1 VL with F31Y

Kd [2]: 0.329 nM | koff [2]: 0.00022 s⁻¹ | kon [2]: 668000 M⁻¹ s⁻¹
B14: anti-IL-6 antibody, light chain S55L (heavy chain WT) (antibody, V domains shown)
VH: B1 VH
VL: B1 VL with F31Y, S55L
notes: See note of m2; also called WT / S55L

Kd [2]: 0.353 nM | koff [2]: 0.000152 s⁻¹ | kon [2]: 430000 M⁻¹ s⁻¹
B15: anti-IL-6 antibody, light chain N52S (heavy chain WT) (antibody, V domains shown)
VH: B1 VH
VL: B1 VL with F31Y, N52S
notes: See note of m2; also called WT / N52S

Kd [2]: 0.499 nM | koff [2]: 0.00021 s⁻¹ | kon [2]: 420000 M⁻¹ s⁻¹
B16: anti-IL-6 antibody, light chain A54L (heavy chain WT) (antibody, V domains shown)
VH: B1 VH
VL: B1 VL with F31Y, A54L
notes: See note of m2; also called WT / A54L

Kd [2]: 0.296 nM | koff [2]: 0.000216 s⁻¹ | kon [2]: 729000 M⁻¹ s⁻¹
B17: anti-IL-6 antibody, light chain S51D (heavy chain WT) (antibody, V domains shown)
VH: B1 VH
VL: B1 VL with F31Y, S51D
notes: See note of m2; also called WT / S51D

koff [1]: 0.00462 s⁻¹
B18: anti-IL-6 Fab, light chain Y95G (Fab, V domains shown)
VH: B1 VH
VL: B1 VL with F31Y, Y95G
notes: see m39

Kd [2]: 0.168 nM | koff [2]: 0.000109 s⁻¹ | kon [2]: 652000 M⁻¹ s⁻¹
B19: anti-IL-6 antibody, light chain A54Y (heavy chain WT) (antibody, V domains shown)
VH: B1 VH
VL: B1 VL with F31Y, A54Y
notes: See note of m2; also called WT / A54Y

Kd [2]: 0.461 nM | koff [2]: 0.000201 s⁻¹ | kon [2]: 436000 M⁻¹ s⁻¹
B20: anti-IL-6 antibody, light chain S55Y (heavy chain WT) (antibody, V domains shown)
VH: B1 VH
VL: B1 VL with F31Y, S55Y
notes: See note of m2; also called WT / S55Y

koff [1]: 0.00608 s⁻¹
B21: anti-IL-6 Fab, light chain Y95I (Fab, V domains shown)
VH: B1 VH
VL: B1 VL with F31Y, Y95I
notes: see m39

Kd [2]: 0.109 nM | koff [2]: 0.000107 s⁻¹ | kon [2]: 987000 M⁻¹ s⁻¹
B22: anti-IL-6 antibody, light chain S55R (heavy chain WT) (antibody, V domains shown)
VH: B1 VH
VL: B1 VL with F31Y, S55R
notes: See note of m2; also called WT / S55R

Kd [2]: 0.442 nM | koff [2]: 0.000203 s⁻¹ | kon [2]: 460000 M⁻¹ s⁻¹
B23: anti-IL-6 antibody, light chain L46V (heavy chain WT) (antibody, V domains shown)
VH: B1 VH
VL: B1 VL with F31Y, L46V
notes: See note of m2; also called WT / L46V

Kd [2]: 0.639 nM | koff [2]: 0.000163 s⁻¹ | kon [2]: 255000 M⁻¹ s⁻¹
B24: anti-IL-6 antibody, light chain S30A (heavy chain WT) (antibody, V domains shown)
VH: B1 VH
VL: B1 VL with S30A, F31Y
notes: See note of m2; also called WT / S30A

Kd [2]: 0.407 nM | koff [2]: 0.000139 s⁻¹ | kon [2]: 341000 M⁻¹ s⁻¹
B25: anti-IL-6 antibody, light chain S91A (heavy chain WT) (antibody, V domains shown)
VH: B1 VH
VL: B1 VL with F31Y, S91A
notes: See note of m2; also called WT / S91A

Kd [2]: 0.463 nM | koff [2]: 0.000231 s⁻¹ | kon [2]: 499000 M⁻¹ s⁻¹
B26: anti-IL-6 antibody, light chain S51R (heavy chain WT) (antibody, V domains shown)
VH: B1 VH
VL: B1 VL with F31Y, S51R
notes: See note of m2; also called WT / S51R

Kd [2]: 0.401 nM | koff [2]: 0.000226 s⁻¹ | kon [2]: 563000 M⁻¹ s⁻¹
B27: anti-IL-6 antibody, light chain S55W (heavy chain WT) (antibody, V domains shown)
VH: B1 VH
VL: B1 VL with F31Y, S55W
notes: See note of m2; also called WT / S55W

koff [1]: 0.00537 s⁻¹
B28: anti-IL-6 Fab, light chain Y48F (Fab, V domains shown)
VH: B1 VH
VL: B1 VL with F31Y, Y48F
notes: see m39

koff [1]: 0.00618 s⁻¹
B29: anti-IL-6 Fab, light chain Y33F (Fab, V domains shown)
VH: B1 VH
VL: B1 VL with F31Y, Y33F
notes: see m39

Kd [2]: 0.00518 nM | koff [2]: 6.14e-06 s⁻¹ | kon [2]: 1.19e+06 M⁻¹ s⁻¹
B30: anti-IL-6 antibody, light chain L53W (heavy chain WT) (antibody, V domains shown)
VH: B1 VH
VL: B1 VL with F31Y, L53W
notes: See note of m2; also called WT / L53W

Kd [2]: 0.416 nM | koff [2]: 0.000198 s⁻¹ | kon [2]: 475000 M⁻¹ s⁻¹
B31: anti-IL-6 antibody, light chain A54G (heavy chain WT) (antibody, V domains shown)
VH: B1 VH
VL: B1 VL with F31Y, A54G
notes: See note of m2; also called WT / A54G

Kd [2]: 0.414 nM | koff [2]: 0.000195 s⁻¹ | kon [2]: 471000 M⁻¹ s⁻¹
B32: anti-IL-6 antibody, light chain I47V (heavy chain WT) (antibody, V domains shown)
VH: B1 VH
VL: B1 VL with F31Y, I47V
notes: See note of m2; also called WT / 147V

Kd [2]: 0.446 nM | koff [2]: 0.000185 s⁻¹ | kon [2]: 416000 M⁻¹ s⁻¹
B33: anti-IL-6 antibody, light chain L53R (heavy chain WT) (antibody, V domains shown)
VH: B1 VH
VL: B1 VL with F31Y, L53R
notes: See note of m2; also called WT / L53R

Kd [2]: 0.419 nM | koff [2]: 0.000227 s⁻¹ | kon [2]: 543000 M⁻¹ s⁻¹
B34: anti-IL-6 antibody, light chain Q89A (heavy chain WT) (antibody, V domains shown)
VH: B1 VH
VL: B1 VL with F31Y, Q89A
notes: See note of m2; also called WT / Q89A

Kd [2]: 0.316 nM | koff [2]: 0.000173 s⁻¹ | kon [2]: 548000 M⁻¹ s⁻¹
B35: anti-IL-6 antibody, light chain S30G (heavy chain WT) (antibody, V domains shown)
VH: B1 VH
VL: B1 VL with S30G, F31Y
notes: See note of m2; also called WT / S30G

Kd [2]: 0.487 nM | koff [2]: 0.000171 s⁻¹ | kon [2]: 351000 M⁻¹ s⁻¹
B36: anti-IL-6 antibody, light chain V29L (heavy chain WT) (antibody, V domains shown)
VH: B1 VH
VL: B1 VL with V29L, F31Y
notes: See note of m2; also called WT / V29L

Kd [2]: 0.401 nM | koff [2]: 0.000218 s⁻¹ | kon [2]: 544000 M⁻¹ s⁻¹
B37: anti-IL-6 antibody, light chain L53H (heavy chain WT) (antibody, V domains shown)
VH: B1 VH
VL: B1 VL with F31Y, L53H
notes: See note of m2; also called WT / L53H

Kd [2]: 0.535 nM | koff [2]: 0.000212 s⁻¹ | kon [2]: 396000 M⁻¹ s⁻¹
B38: anti-IL-6 antibody, light chain S51K (heavy chain WT) (antibody, V domains shown)
VH: B1 VH
VL: B1 VL with F31Y, S51K
notes: See note of m2; also called WT / S51K

Kd [2]: 0.752 nM | koff [2]: 0.000272 s⁻¹ | kon [2]: 362000 M⁻¹ s⁻¹
B39: anti-IL-6 antibody, light chain Q89S (heavy chain WT) (antibody, V domains shown)
VH: B1 VH
VL: B1 VL with F31Y, Q89S
notes: See note of m2; also called WT / Q89S

koff [1]: 0.00563 s⁻¹
B40: anti-IL-6 Fab, light chain Y48W (Fab, V domains shown)
VH: B1 VH
VL: B1 VL with F31Y, Y48W
notes: see m39

koff [1]: 0.00511 s⁻¹
B41: anti-IL-6 Fab, light chain Y31G (Fab, V domains shown)
VH: B1 VH
VL: B1 VL with F31G
notes: see m39
